The record followed here is IntAct's records for PubMed 22579248.

B1: Partitioning defective 3 homolog (Homo sapiens), Q8TEW0 (parent)
chain: MKVTVCFGRTRVVVPCGDGHMKVFSLIQQAVTRYRKAIAKDPNYWIQVHRLEHGDGGILDLDDILCDVADDKDRLVAVFDEQDPHHGGDGTSASSTGTQSPEIFGSELGTNNVSAFQPYQATSEIEVTPSVLRANMPLHVRRSSDPALIGLSTSVSDSNFSSEEPSRKNPTRWSTTAGFLKQNTAGSPKTCDRKKDENYRSLPRDTSNWSNQFQRDNARSSLSASHPMVGKWLEKQEQDEDGTEEDNSRVEPVGHADTGLEHIPNFSLDDMVKLVEVPNDGGPLGIHVVPFSARGGRTLGLLVKRLEKGGKAEHENLFRENDCIVRINDGDLRNRRFEQAQHMFRQAMRTPIIWFHVVPAANKEQYEQLSQSEKNNYYSSRFSPDSQYIDNRSVNSAGLHTVQRAPRLNHPPEQIDSHSRLPHSAHPSGKPPSAPASAPQNVFSTTVSSGYNTKKIGKRLNIQLKKGTEGLGFSITSRDVTIGGSAPIYVKNILPRGAAIQDGRLKAGDRLIEVNGVDLVGKSQEEVVSLLRSTKMEGTVSLLVFRQEDAFHPRELNAEPSQMQIPKETKAEDEDIVLTPDGTREFLTFEVPLNDSGSAGLGVSVKGNRSKENHADLGIFVKSIINGGAASKDGRLRVNDQLIAVNGESLLGKTNQDAMETLRRSMSTEGNKRGMIQLIVARRISKCNELKSPGSPPGPELPIETALDDRERRISHSLYSGIEGLDESPSRNAALSRIMGESGKYQLSPTVNMPQDDTVIIEDDRLPVLPPHLSDQSSSSSHDDVGFVTADAGTWAKAAISDSADCSLSPDVDPVLAFQREGFGRQSMSEKRTKQFSDASQLDFVKTRKSKSMDLGIADETKLNTVDDQKAGSPSRDVGPSLGLKKSSSLESLQTAVAEVTLNGDIPFHRPRPRIIRGRGCNESFRAAIDKSYDKPAVDDDDEGMETLEEDTEESSRSGRESVSTASDQPSHSLERQMNGNQEKGDKTDRKKDKTGKEKKKDRDKEKDKMKAKKGMLKGLGDMFRFGKHRKDDKIEKTGKIKIQESFTSEEERIRMKQEQERIQAKTREFRERQARERDYAEIQDFHRTFGCDDELMYGGVSSYEGSMALNARPQSPREGHMMDALYAQVKKPRNSKPSPVDSNRSTPSNHDRIQRLRQEFQQAKQDEDVEDRRRTYSFEQPWPNARPATQSGRHSVSVEVQMQRQRQEERESSQQAQRQYSSLPRQSRKNASSVSQDSWEQNYSPGEGFQSAKENPRYSSYQGSRNGYLGGHGFNARVMLETQELLRQEQRRKEQQMKKQPPSEGPSNYDSYKKVQDPSYAPPKGPFRQDVPPSPSQVARLNRLQTPEKGRPFYS
partner: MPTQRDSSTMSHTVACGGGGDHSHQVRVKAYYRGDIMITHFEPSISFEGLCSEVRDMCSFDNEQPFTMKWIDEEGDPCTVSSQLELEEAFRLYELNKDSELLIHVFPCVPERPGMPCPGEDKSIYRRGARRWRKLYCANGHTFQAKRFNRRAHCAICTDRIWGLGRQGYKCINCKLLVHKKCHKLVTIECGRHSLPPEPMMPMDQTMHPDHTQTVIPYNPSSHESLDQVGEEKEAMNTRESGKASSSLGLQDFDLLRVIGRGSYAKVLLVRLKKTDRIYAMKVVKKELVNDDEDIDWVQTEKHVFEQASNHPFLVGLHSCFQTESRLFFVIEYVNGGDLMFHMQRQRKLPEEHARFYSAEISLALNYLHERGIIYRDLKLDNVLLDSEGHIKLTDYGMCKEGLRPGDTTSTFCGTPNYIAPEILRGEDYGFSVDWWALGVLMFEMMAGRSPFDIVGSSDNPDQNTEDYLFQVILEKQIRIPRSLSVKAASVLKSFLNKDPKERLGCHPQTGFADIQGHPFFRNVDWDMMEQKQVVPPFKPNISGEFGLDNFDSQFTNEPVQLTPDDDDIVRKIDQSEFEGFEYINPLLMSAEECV
B2: Protein kinase C iota type (Mus musculus), Q62074 (parent)
chain: B1 partner

In the first assay the parent is B1. As to conditions: with kpci_mouse Prkci.
As to F823A, the “effect of a mutation on the interaction” value is “disrupting interaction strength”.
The same measure, in the same setting: the result for F823K reads “decreasing interaction strength”.
On to S827E;S829E, for which the “effect of a mutation on the interaction” value was “disrupting interaction strength”.
Still for that read-out and setting: with F818A the entry was “disrupting interaction strength”; with R832A, “disrupting interaction strength”; with R820A, “disrupting interaction strength”.
Still for that read-out and setting: the result for S827A;S829A reads “disrupting interaction strength”; that for S827A, “decreasing interaction strength”; that for S827E, “disrupting interaction strength”.
The same measure, in the same setting: the result for S829E reads “disrupting interaction strength”; that for K831A, “disrupting interaction strength”; that for R825A, “disrupting interaction strength”.

In the next assay the parent is B2. As to conditions: with pard3_human PARD3, Q8TEW0.
For the variant MPTQRDSSTMSHTVACGGGGDHSHQVRVKAYYRGDIMITHFEPSISFEGLCSEVRDMCSFDNEQPFTMKWIDEEGDPCTVSSQLELEEAFRLYELNKDSELLIHVFPCVPERPGMPCPGEDKSIYRRGARRWRKLYCANGHTFQAKRFNRRAHCAICTDRIWGLGRQGYKCINCKLLVHKKCHKLVTIECGRHSLPPEPMMPMDQTMHPDHTQTVIPYNPSSHESLDQVGEEKEAMNTRESGKASSSLGLQDFDLLRVIGRGSYAKVLLVRLKKTDRIYAMKVVKKELVNKLQKIDWVQTEKHVFEQASNHPFLVGLHSCFQTESRLFFVIEYVNGGDLMFHMQRQRKLPEEHARFYSAEISLALNYLHERGIIYRDLKLDNVLLDSEGHIKLTDYGMCKEGLRPGDTTSTFCGTPNYIAPEILRGEDYGFSVDWWALGVLMFEMMAGRSPFDIVGSSDNPDQNTEDYLFQVILEKQIRIPRSLSVKAASVLKSFLNKDPKERLGCHPQTGFADIQGHPFFRNVDWDMMEQKQVVPPFKPNISGEFGLDNFDSQFTNEPVQLTPDDDDIVRKIDQSEFEGFEYINPLLMSAEECV [D291K;D292L;E293Q;D294K], the “effect of a mutation on the interaction” value is recorded as “decreasing interaction strength”.
In the case of MPTQRDSSTMSHTVACGGGGDHSHQVRVKAYYRGDIMITHFEPSISFEGLCSEVRDMCSFDNEQPFTMKWIDEEGDPCTVSSQLELEEAFRLYELNKDSELLIHVFPCVPERPGMPCPGEDKSIYRRGARRWRKLYCANGHTFQAKRFNRRAHCAICTDRIWGLGRQGYKCINCKLLVHKKCHKLVTIECGRHSLPPEPMMPMDQTMHPDHTQTVIPYNPSSHESLDQVGEEKEAMNTRESGKASSSLGLQDFDLLRVIGRGSYAKVLLVRLKKTDRIYAMKVVKKELVNDDEDIDWVQTEKHVFEQASNHPFLVGLHSCFQTESRLFFVIEYVNGGDLMFHMQRQRKLPEEHARFYSAEISLALNYLHERGIIYRDLKLDNVLLDSEGHIKLTDYGMCKEGLRPGDTTSTFCGTPDYIAPEILRGEDYGFSVDWWALGVLMFEMMAGRSPFDIVGSSDNPDQNTEDYLFQVILEKQIRIPRSLSVKAASVLKSFLNKDPKERLGCHPQTGFADIQGHPFFRNVDWDMMEQKQVVPPFKPNISGEFGLDNFDSQFTNEPVQLTPDDDDIVRKIDQSEFEGFEYINPLLMSAEECV [N417D], the “effect of a mutation on the interaction” value is reported as “decreasing interaction strength”.

In a further assay the parent is B2. The following applies: with pard3_human PARD3, Q8TEW0. This is another data set of the same source.
Turning to MPTQRDSSTMSHTVACGGGGDHSHQVRVKAYYRGDIMITHFEPSISFEGLCSEVRDMCSFDNEQPFTMKWIDEEGDPCTVSSQLELEEAFRLYELNKDSELLIHVFPCVPERPGMPCPGEDKSIAAAGARRWRKLYCANGHTFQAKRFNRRAHCAICTDRIWGLGRQGYKCINCKLLVHKKCHKLVTIECGRHSLPPEPMMPMDQTMHPDHTQTVIPYNPSSHESLDQVGEEKEAMNTRESGKASSSLGLQDFDLLRVIGRGSYAKVLLVRLKKTDRIYAMKVVKKELVNDDEDIDWVQTEKHVFEQASNHPFLVGLHSCFQTESRLFFVIEYVNGGDLMFHMQRQRKLPEEHARFYSAEISLALNYLHERGIIYRDLKLDNVLLDSEGHIKLTDYGMCKEGLRPGDTTSTFCGTPNYIAPEILRGEDYGFSVDWWALGVLMFEMMAGRSPFDIVGSSDNPDQNTEDYLFQVILEKQIRIPRSLSVKAASVLKSFLNKDPKERLGCHPQTGFADIQGHPFFRNVDWDMMEQKQVVPPFKPNISGEFGLDNFDSQFTNEPVQLTPDDDDIVRKIDQSEFEGFEYINPLLMSAEECV [Y125A;R126A;R127A], the “effect of a mutation on the interaction” value is given as “increasing interaction strength”.
